Columns and labels:
[1] = biological target: recombinant N-type (Cav2.2) VGCC α1B-b/α2δ1/β3 expressed in Xenopus oocytes (rat; rabbit) (UniProt Q02294); assay: cell-based or functional assay
[2] = biological target: recombinant N-type (Cav2.2) VGCC α1B-b/α2δ1/β3 expressed in Xenopus oocytes (rat; rabbit), Q02294; assay: cell-based or functional assay
Sequence of recombinant N-type (Cav2.2) VGCC α1B-b/α2δ1/β3 expressed in Xenopus oocytes (rat; rabbit), Q02294 (P13806 27-1106, stated change not applied, chain 2 of 2): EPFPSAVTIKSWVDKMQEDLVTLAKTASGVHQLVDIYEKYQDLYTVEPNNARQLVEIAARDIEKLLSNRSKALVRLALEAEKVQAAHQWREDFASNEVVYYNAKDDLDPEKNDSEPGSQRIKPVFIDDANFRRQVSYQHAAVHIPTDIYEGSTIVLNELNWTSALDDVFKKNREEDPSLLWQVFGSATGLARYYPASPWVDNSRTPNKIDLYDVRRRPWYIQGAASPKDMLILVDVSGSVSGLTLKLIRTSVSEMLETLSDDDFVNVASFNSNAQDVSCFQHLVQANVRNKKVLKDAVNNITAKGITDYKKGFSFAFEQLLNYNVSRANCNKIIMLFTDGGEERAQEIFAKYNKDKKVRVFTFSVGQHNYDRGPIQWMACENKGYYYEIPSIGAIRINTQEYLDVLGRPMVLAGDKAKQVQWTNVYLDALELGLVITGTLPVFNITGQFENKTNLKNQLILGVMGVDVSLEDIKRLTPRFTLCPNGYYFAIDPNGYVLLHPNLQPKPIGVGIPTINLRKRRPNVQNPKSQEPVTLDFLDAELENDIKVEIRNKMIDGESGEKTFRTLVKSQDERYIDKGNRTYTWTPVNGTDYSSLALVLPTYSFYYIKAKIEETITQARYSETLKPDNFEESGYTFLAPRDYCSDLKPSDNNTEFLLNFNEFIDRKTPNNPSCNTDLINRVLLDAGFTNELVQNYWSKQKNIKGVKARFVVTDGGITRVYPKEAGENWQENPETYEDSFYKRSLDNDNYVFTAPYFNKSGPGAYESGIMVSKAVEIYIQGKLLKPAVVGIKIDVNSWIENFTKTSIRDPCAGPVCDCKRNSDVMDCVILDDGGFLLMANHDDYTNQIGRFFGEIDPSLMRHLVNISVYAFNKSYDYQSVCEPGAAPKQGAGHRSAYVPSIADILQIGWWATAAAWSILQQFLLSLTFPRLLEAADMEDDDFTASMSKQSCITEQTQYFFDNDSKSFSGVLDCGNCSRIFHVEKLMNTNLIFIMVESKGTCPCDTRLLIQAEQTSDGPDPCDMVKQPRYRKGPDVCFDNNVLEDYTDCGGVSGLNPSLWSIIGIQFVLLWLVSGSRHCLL
Sequence of recombinant N-type (Cav2.2) VGCC α1B-b/α2δ1/β3 expressed in Xenopus oocytes (rat; rabbit), Q02294 (P54287 whole entry, stated change not applied, chain 3 of 2, further chain): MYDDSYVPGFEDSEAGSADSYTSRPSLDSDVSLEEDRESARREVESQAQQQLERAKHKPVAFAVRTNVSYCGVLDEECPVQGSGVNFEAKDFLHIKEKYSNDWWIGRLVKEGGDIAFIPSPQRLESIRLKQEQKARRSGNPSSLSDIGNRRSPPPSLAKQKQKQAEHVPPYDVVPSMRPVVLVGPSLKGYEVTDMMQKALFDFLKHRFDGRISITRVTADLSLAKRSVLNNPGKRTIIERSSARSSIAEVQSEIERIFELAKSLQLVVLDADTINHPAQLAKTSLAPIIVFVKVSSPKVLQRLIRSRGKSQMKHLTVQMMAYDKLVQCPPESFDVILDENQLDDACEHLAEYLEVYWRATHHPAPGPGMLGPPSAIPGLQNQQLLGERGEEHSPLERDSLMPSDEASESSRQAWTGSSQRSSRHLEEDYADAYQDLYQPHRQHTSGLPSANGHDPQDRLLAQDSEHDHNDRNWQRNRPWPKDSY

Sequence of recombinant N-type (Cav2.2) VGCC α1B-b/α2δ1/β3 expressed in Xenopus oocytes (rat; rabbit) (P13806 27-1106, stated change not applied, chain 2 of 2): as the sequence (P13806 27-1106, stated change not applied, chain 2 of 2) above
Sequence of recombinant N-type (Cav2.2) VGCC α1B-b/α2δ1/β3 expressed in Xenopus oocytes (rat; rabbit) (P54287 whole entry, stated change not applied, chain 3 of 2, further chain): as the sequence (P54287 whole entry, stated change not applied, chain 3 of 2, further chain) above

“ω-conotoxin CVIB (from UniProt P58918 1-25) (peptide)” gave an IC50 of inhibition of normalized peak IBa, Xenopus oocytes [1] of 12 nM.

For ω-conotoxin CVIE (peptide), the IC50 of inhibition of normalized peak IBa, Xenopus oocytes [1] was 2.6 nM, the time constant of block (τon) at HP -80 mV [1] was 31.5 s and the time constant of block (τon) at HP -125 mV [1] was 38.5 s.

Molecule CKGKGASCRRTSYDCCTGSCRSGRC (modifications not checked) [ω-conotoxin CVIF] has an IC50 of inhibition of normalized peak IBa, Xenopus oocytes [2] of 19.9 nM.

Reference: US20120329717A1
